Experimental data from US20240366624A1, “METHODS AND COMPOSITIONS FOR TREATING THROMBOTIC DISEASE” (Washington University, priority 2023, published 2024).

Key:
Ero1α KO mice = assay: Intravital microscopy, laser-induced cremaster arteriolar injury, rescue in Ero1α KO mice; type: in vivo, mouse; settings: 4 μg/g BW into Ero1α KO mice
Experimental: FIG. 2 (A-C): DyLight 649-conjugated anti-CD42c and Alexa 488-conjugated rabbit IgG or polyclonal anti-ERO1α antibodies (0.3 μg/g body weight [BW]) were injected into wild type (WT) mice for intravital microscopy. Platelet accumulation and extracellular Ero1α were detected at the site of laser-induced cremaster arteriolar injury. FIG. 2A: Representative images. FIG. 2B and FIG. 2C: The median integrated fluorescence intensities of anti-CD42c (F platelet) and anti-ERO1α antibodies (F Ero1α; n=41-43 arterioles in 6 WT mice per group). FIG. 2(D-F): Intravital microscopy with WT control and Ero1α conditional knockout (CKO) and knockout (KO) mice. After laser-induced cremaster arteriolar injury, platelet accumulation and fibrin generation were detected by injection of DyLight 649-conjugated anti-CD42c and Alexa 488-conjugated anti-fibrin antibodies, respectively. FIG. 2D: Representative images. FIG. 2E and FIG. 2F: The median integrated fluorescence intensities of anti-CD42c (F platelet) and anti-fibrin (F fibrin) antibodies (n=36-44 arterioles in 6 mice per group). Quantification of the antibody signal at a different time point after laser injury. FIG. 2G and FIG. 2H: Ero1α KO mice were treated with recombinant wtERO1α or mutant ERO1α (m ERO1a) (Cys94Ser), 4 μg/g BW. After laser injury, platelets and fibrin were detected as described above (n=36-38 arterioles in 6 mice per group). FIG. 2I: The time to occlusion (TTO) was measured by a Doppler blood flow meter in WT control, Ero1α CKO/KO, and β3 KO mice after the application of 6.5% FeCl3 to a carotid artery (n=8-11 mice per group). FIG. 2J and FIG. 2K: After amputating the tail tip (5 mm), tail bleeding times and hemoglobin (Hb) contents were measured in WT control, Ero1α CKO/KO, and β3 KO mice (n=8-9 mice per group). Bars represent the median value. P values were determined by Mann-Whitney U test (FIG. 2E, FIG. 2F, and FIG. 2(1-K)) or ANOVA and Dunn test (FIG. 2G and FIG. 2H).
Intravital microscopy was performed in a mouse model of laser-induced cremaster arteriolar injury as previously described. WT (C57BL/6), littermate WT control, and CKO and KO male mice (8-10 weeks old) were anesthetized with intraperitoneal injection of ketamine and xylazine. The cremaster muscle was exteriorized and superfused with 37° C. bicarbonate-buffered saline throughout the experiment. Arteriolar wall injury was induced by laser ablation (Photonics Instruments) as previously described. Multiple thrombi were generated in at least 3 to 4 different arterioles of 1 mouse, with new thrombi formed upstream of earlier thrombi to minimize any contribution from thrombi generated earlier in the mouse. […]

Ero1α-null platelets = assay: Platelet aggregation, Ero1α-null platelets; type: cell-based, mouse; settings: 50 μg/mL protein, 0.025 U/mL thrombin
Experimental: FIG. 7(A-L) is an exemplary embodiment of crucial intracellular ERO1α (endoplasmic reticulum oxidoreductase 1a) for platelet activation, aggregation, and thrombus formation in accordance with the present disclosure. FIG. 7A: Ex vivo platelet thrombus formation in a flow chamber assay. Adherent and aggregated platelets were stained with rhodamine-conjugated phalloidin and imaged by confocal microscopy. Representative images (bar, 10 μm). Surface coverage and thrombus volume were measured (mean±SD, n=4). FIG. 7(B-E): Aggregation and ATP secretion of wild type (WT) and Ero1α-null platelets were induced by 0.025 U/mL thrombin, 0.05 μg/mL CRP (collagen-related peptide), 0.5 μM A23187, or 2.5 μM ADP. […] Quantification graphs of aggregation and ATP secretion are presented as the mean±SD (n=3-4). FIG. 7G and FIG. 7H: P-selectin exposure and αIIbβ3 integrin activation of WT and Ero1α-null platelets were analyzed by flow cytometry. The data are presented as the geometric mean fluorescence intensity (MFI) value (mean±SD, n=3-4). […] P values determined by unpaired Student t test (FIG. 7(A-E) and FIG. 7(G-1)), ANOVA and Dunnett test (FIG. 7F), or Mann-Whitney U test (FIG. 7K and FIG. 7L). […]
FIG. 10(A-E) is an exemplary embodiment of 15E9 not affecting platelet activation and aggregation in accordance with the present disclosure. […] P values determined by unpaired Student's t-test (vs. mIgG1). […]

B1: wtERO1α: recombinant wild-type ERO1α (protein)
chain: EEQPPETAAQRCFCQVSGYLDDCTCDVETIDRFNNYRLFPRLQKLLESDYFRYYKVNLKRPCPFWNDISQCGRRDCAVKPCQSDEVPDGIKSASYKYSEEANNLIEECEQAERLGAVDESLSEETQKAVLQWTKHDDSSDNFCEADDIQSPEAEYVDLLLNPERYTGYKGPDAWKIWNVIYEENCFKPQTIKRPLNPLASGQGTSEENTFYSWLEGLCVEKRAFYRLISGLHASINVHLSARYLLQETWLEKKWGHNITEFQQRFDGILTEGEGPRRLKNLYFLYLIELRALSKVLPFFERPDFQLFTGNKIQDEENKMLLLEILHEIKSFPLHFDENSFFAGDKKEAHKLKEDFRLHFRNISRIMDCVGCFKCRLWGKLQTQGLGTALKILFSEKLIANMPESGPSYEFHLTRQEIVSLFNAFGRISTSVKELENFRNLLQNIH
rescue of fibrin generation (Ero1α KO mice): minimal rescue effect | rescue of platelet thrombus formation (Ero1α KO mice): minimal rescue effect | rescue of the defect in Ero1α-null platelet aggregation (Ero1α-null platelets): did not rescue

B2: mERO1α: activity-null ERO1α-Cys94Ser (protein)
chain: EEQPPETAAQRCFCQVSGYLDDCTCDVETIDRFNNYRLFPRLQKLLESDYFRYYKVNLKRPCPFWNDISQSGRRDCAVKPCQSDEVPDGIKSASYKYSEEANNLIEECEQAERLGAVDESLSEETQKAVLQWTKHDDSSDNFCEADDIQSPEAEYVDLLLNPERYTGYKGPDAWKIWNVIYEENCFKPQTIKRPLNPLASGQGTSEENTFYSWLEGLCVEKRAFYRLISGLHASINVHLSARYLLQETWLEKKWGHNITEFQQRFDGILTEGEGPRRLKNLYFLYLIELRALSKVLPFFERPDFQLFTGNKIQDEENKMLLLEILHEIKSFPLHFDENSFFAGDKKEAHKLKEDFRLHFRNISRIMDCVGCFKCRLWGKLQTQGLGTALKILFSEKLIANMPESGPSYEFHLTRQEIVSLFNAFGRISTSVKELENFRNLLQNIH
rescue of fibrin generation (Ero1α KO mice): did not show any effect | rescue of platelet thrombus formation (Ero1α KO mice): did not show any effect
